Source: paper doi:10.1101/2025.10.13.682046 (bioRxiv, 2025)

B1: GST-CIP2A(1-330) (domain or fragment)
chain: not shown

Columns and labels:
[1] = target: B1; assay: pull-down
[2] = target: CIP2A(1-560)-V5 (human, UniProt Q8TCG1 1-560); assay: pull-down

Row | binding result [1] | binding result [2] | Binder
1 | binds |  | CIP2A(1-330), prey of the GST pull-down (domain or fragment) not shown
2 |  | binds | CIP2A(331-560) (domain or fragment) not shown
3 |  | binds | B1
